The data set can be described thus: Serum insulin concentration vs. time in diabetic rat after administration of insulin by the microdevice with occlusive layer. Type of data set: in vivo. An excerpt:
The serum concentration reached 110±5.37 μIU/ml and stayed relatively constant at this level when the occlusive layer was applied.

Here are results for 1 substance from patent US10525246B2, “Microdevice and method for transdermal delivery and sampling of active substances” (NANOMED SKINCARE, INC., priority 2006, dated 2020).

With “Novolin R®: Novolin R insulin administered to a diabetic rat by the present microdevice”, the “Serum insulin concentration after removal of the occlusive layer” value (after removal of the occlusive layer) is listed as “rapidly dropped”. For the setting “microdevice administration, occlusive layer applied, level reached and stayed relatively constant”, the Serum insulin concentration is on record as 110±5.37 μIU/ml.
